# Measured values reported in PMC5837747.
# Molecular target: HA-14-3-3β (UniProt P31946)
# Test: GFP co-immunoprecipitation, HA blot, densitometry
Substance,"binding against the reference (reference: S1093A single mutant, sites S1163)","binding against the reference (reference: S1163A single mutant, sites S1093)","binding against the reference (reference: wild type (unstimulated and PMA-treated cells), sites S1093,S1163)"
"mouse CdGAP (mCdGAP, GFP-CdGAP) (from UniProt A6X8Z5) S1093A/S1163A double mutant",weaker,weaker,–
"mouse CdGAP (mCdGAP, GFP-CdGAP) (from UniProt A6X8Z5) S1093A/S1163A",–,–,weaker
